Laboratory results published in the RNAGym collection of RNA variant scans (doi:10.1093/molbev/msab373).

B1: Azoarcus group I ribozyme (parent)
chain: GUGCCUUGCGCCGGGAAACCACGCAAGGGAUGGUGUCAAAUUCGGCGAAACCUAAGCGCCCGCCCGGGCGUAUGGCAACGCCGAGCCAAGCUUCGGCGCCUGCGCCGAUGAAGGUGUAGAGACUAGACGGCACCCACCUAAGGCAAACGCUAUGGUGAAGGCAUAGUCCAGGGAGUGGCGAAAGUCACACAAACCGG

Variants of: B1
Assay: reverse-splicing fitness (ratio to wild type); higher = more active; in vitro selection; Mg2+ level not given
Summary of the method: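 An in vitro group I ribozyme library with randomized positions was T7-transcribed and gel-purified. In triplicate, 10 pmol RNA in EPPS pH 7.5 was reacted with 50 pmoles of a 30-nt RNA substrate for 1 h at 37 °C across several added MgCl2 levels (1–48 mM), then stopped with EDTA. Products were reverse transcribed from a substrate-complementary primer, PCR-amplified and sequenced (HiSeq 4000). Fitness is a variant's read proportion after selection over that before, normalised to wild type.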

Point of comparison: GUGCCUUGCGCCGGGAAACCACGCAAGGGAUGGUGUCAAAUUCGGCGAAACCUAAGCGCCCGCCCGGGCGUAUGGCAACGCGGAGCCAAGCUUCGGCGCCUGCGCCGAUGGAGGUGUAGAGACUAGACGGCACCCACCUAAGGCAAACGAUAUGGUGAAGGCAUAGUCUAGGGAGCGGCGAAAGUCACACAAACCGG [C82G A111G C150A C169U U176C], reverse-splicing fitness 0.0146. Against it:
- GUGCCUUGCGCCGGGAAACCACGCAAGGGAUGGUGUCAAAUUCGGCGAAACCUAAGCGCCCGCCCGGGCGUAUGGCAACGCGGAGCCAAGCUUCGGCGCCUGCGCCGAUGGAGGUGUAGAGACUAGACGGCACCCACCUAAGGCAAACGAUAUGGUGAAGGCAUAGUCCAGGGAGCGGCGAAAGUCACACAAACCGG [C82G A111G C150A U176C] — higher, 0.0385
- GUGCCUUGCGCCGGGAAACCACGCAAGGGAUGGUGUCAAAUUCGGCGAAACCUAAGCGCCCGCCCGGGCGUAUGGCAACGCGGAGCCAAGCUUCGGCGCCUGCGCCGAUGGAGGUGUAGAGACUAGACGGCACCCACCUAAGGCAAACGAUAUGGUGAAGGCAUAGUCCAGGGAGAGGCGAAAGUCACACAAACCGG [C82G A111G C150A U176A] — higher, 0.0337
- GUGCCUUGCGCCGGGAAACCACGCAAGGGAUGGUGUCAAAUUCGGCGAAACCUAAGCGCCCGCCCGGGCGUAUGGCAACGCGGAGCCAAGCUUCGGCGCCUGCGCCGAUGGAGGUGUAGAGACUAGACGGCACCCACCUAAGGCAAACGAUAUGGUGAAGGCAUAGUCUAGGGAGAGGCGAAAGUCACACAAACCGG [C82G A111G C150A C169U U176A] — higher, 0.0165
- GUGCCUUGCGCCGGGAAACCACGCAAGGGAUGGUGUCAAAUUCGGCGAAACCUAAGCGCCCGCCCGGGCGUAUGGCAACGCGGAGCCAAGCUUCGGCGCCUGCGCCGAUGGAGGUGUAGAGACUAGACGGCACCCACCUAAGGCAAACGAUAUGGUGAAGGCAUAGUCUAGGGAGGGGCGAAAGUCACACAAACCGG [C82G A111G C150A C169U U176G] — lower, 0.00706
- GUGCCUUGCGCCGGGAAACCACGCAAGGGAUGGUGUCAAAUUCGGCGAAACCUAAGCGCCCGCCCGGGCGUAUGGCAACGCGGAGCCAAGCUUCGGCGCCUGCGCCGAUGGAGGUGUAGAGACUAGACGGCACCCACCUAAGGCAAACGAUAUGGUGAAGGCAUAGUCUAGGGAGUGGCGAAAGUCACACAAACCGG [C82G A111G C150A C169U] — lower, 0.0115
- GUGCCUUGCGCCGGGAAACCACGCAAGGGAUGGUGUCAAAUUCGGCGAAACCUAAGCGCCCGCCCGGGCGUAUGGCAACGCGGAGCCAAGCUUCGGCGCCUGCGCCGAUGGAGGUGUAGAGACUAGACGGCACCCACCUAAGGCAAACGAUAUGGUGAAGGCAUAGUCGAGGGAGUGGCGAAAGUCACACAAACCGG [C82G A111G C150A C169G] — lower, 0.0109
- GUGCCUUGCGCCGGGAAACCACGCAAGGGAUGGUGUCAAAUUCGGCGAAACCUAAGCGCCCGCCCGGGCGUAUGGCAACGCGGAGCCAAGCUUCGGCGCCUGCGCCGAUGGAGGUGUAGAGACUAGACGGCACCCACCUAAGGCAAACGGUAUGGUGAAGGCAUAGUCCAGGGAGUGGCGAAAGUCACACAAACCGG [C82G A111G C150G] — higher, 0.0256
- GUGCCUUGCGCCGGGAAACCACGCAAGGGAUGGUGUCAAAUUCGGCGAAACCUAAGCGCCCGCCCGGGCGUAUGGCAACGCGGAGCCAAGCUUCGGCGCCUGCGCCGAUGGAGGUGUAGAGACUAGACGGCACCCACCUAAGGCAAACGUUAUGGUGAAGGCAUAGUCCAGGGAGUGGCGAAAGUCACACAAACCGG [C82G A111G C150U] — higher, 0.199
- GUGCCUUGCGCCGGGAAACCACGCAAGGGAUGGUGUCAAAUUCGGCGAAACCUAAGCGCCCGCCCGGGCGUAUGGCAACGCGGAGCCAAGCUUCGGCGCCUGCGCCGAUGGAGGUGUAGAGACUAGACGGCACCCACCUAAGGCAAACGAUAUGGUGAAGGCAUAGUCGAGGGAGCGGCGAAAGUCACACAAACCGG [C82G A111G C150A C169G U176C] — higher, 0.0228
- GUGCCUUGCGCCGGGAAACCACGCAAGGGAUGGUGUCAAAUUCGGCGAAACCUAAGCGCCCGCCCGGGCGUAUGGCAACGCGGAGCCAAGCUUCGGCGCCUGCGCCGAUGGAGGUGUAGAGACUAGACGGCACCCACCUAAGGCAAACGAUAUGGUGAAGGCAUAGUCGAGGGAGAGGCGAAAGUCACACAAACCGG [C82G A111G C150A C169G U176A] — higher, 0.0217
- GUGCCUUGCGCCGGGAAACCACGCAAGGGAUGGUGUCAAAUUCGGCGAAACCUAAGCGCCCGCCCGGGCGUAUGGCAACGCGGAGCCAAGCUUCGGCGCCUGCGCCGAUGGAGGUGUAGAGACUAGACGGCACCCACCUAAGGCAAACGAUAUGGUGAAGGCAUAGUCGAGGGAGGGGCGAAAGUCACACAAACCGG [C82G A111G C150A C169G U176G] — lower, 0.00751
- GUGCCUUGCGCCGGGAAACCACGCAAGGGAUGGUGUCAAAUUCGGCGAAACCUAAGCGCCCGCCCGGGCGUAUGGCAACGCGGAGCCAAGCUUCGGCGCCUGCGCCGAUGGAGGUGUAGAGACUAGACGGCACCCACCUAAGGCAAACGGUAUGGUGAAGGCAUAGUCGAGGGAGGGGCGAAAGUCACACAAACCGG [C82G A111G C150G C169G U176G] — lower, 0.00613
- GUGCCUUGCGCCGGGAAACCACGCAAGGGAUGGUGUCAAAUUCGGCGAAACCUAAGCGCCCGCCCGGGCGUAUGGCAACGCGGAGCCAAGCUUCGGCGCCUGCGCCGAUGGAGGUGUAGAGACUAGACGGCACCCACCUAAGGCAAACGGUAUGGUGAAGGCAUAGUCGAGGGAGCGGCGAAAGUCACACAAACCGG [C82G A111G C150G C169G U176C] — lower, 0.00922
- GUGCCUUGCGCCGGGAAACCACGCAAGGGAUGGUGUCAAAUUCGGCGAAACCUAAGCGCCCGCCCGGGCGUAUGGCAACGCGGAGCCAAGCUUCGGCGCCUGCGCCGAUGGAGGUGUAGAGACUAGACGGCACCCACCUAAGGCAAACGGUAUGGUGAAGGCAUAGUCGAGGGAGAGGCGAAAGUCACACAAACCGG [C82G A111G C150G C169G U176A] — lower, 0.0106
